The record followed here is the DeepSol protein solubility set.

A short description of the data set: soluble on expression in E. coli; label from the status in PepcDB or PDB records.
As to “GMNNIIVGMGEALWDVLPEGKKIGGAPANFAYHVSQFGFDSRVVSAVGNDELGDEIMEVFKEKQLKNQIERVDYPTGTVQVTLDDEGVPCYEIKEGVAWDNIPFTDELKRLALNTRAVCFGSLAQRNEVSRATINRFLDTMPDIDGQLKIFDINLRQDFYTKEVLRESFKRCNILKINDEELVTISRMFGYPGIDLQDKCWILLAKYNLKMLILTCGINGSYVFTPGVVSFQETPKVPVADTVGAGDSFTAAFCASILNGKSVPEAHKLAVEVSAYVCTQSGAMPELPVILKDRLL”, the “soluble on expression in E. coli” value is reported as “soluble”.
For “GMNPFQNSFGGHIPQDVAGKQGENVIFIVYNLTDSPDTVDKVKDVCANFSAMIRSMRNRFPDMQFSCTMGFGADAWTRLFPDKGKPKELSTFSEIKGEKYTAVSTPGDLLFHIRAKQMGLCFEFASILDEKLKGAVVSVDETHGFRYMDGKAIIGFVDGTENPAVDENPYHFAVIGEEDADFAGGSYVFVQKYIHDMVAWNALPVEQQEKVIGRHKFNDVELSDEEKPGNAHNAVTNIGDDLKIVRANMPFANTSKGEYGTYFIGYASTFSTTRRMLENMFIGSPAGNTDRLLDFSTAITGTLFFVPSYDLLGELGE”, the “soluble on expression in E. coli” value was “soluble”.
Under “GMPIDTPTDASPADGSASDTVFFGIMSGLELGTFVPGQRLVETDLVAHFGVGRNSVREALQRLAAEGIVDLQRHRGAVIRRLSLQETLDVLDVAERMTGLLARAATRGSGNQPQVQALRASVQALVAAEKAQDGETFSNARRHFYRTLLEMGDNRELRRLFPTIHMPIVHAQHRLASLRQMRLDDYRRIATAVLAGEPDAAEAAGAAHVKNVRGAILDRQPA” stands “soluble”.
Under “GMPNFSKNEEVLFSAVNEIFEEKIPFNKIIGLKVRFISPEQVKLSFEMRDELIGNAIRRMLYGGVISSAIDMTAGLAAFMGFQEKMSGKPMEEKLAMIGRLSTMSLHVEYLRPGLGREFVCTGYNVRTGNKVAVIRTELMNDQDELIAVGSVSYILV” stands “soluble”; under “GMPPVWTLPRLYQHFQGAIDLELWTIPYYLTVLYSIKDPTTVPYRLIQAAVYQEMLHAQLVSNIANAYGYSPTLSAPEYVGTAVPHIDFDLDTPNPTSIFTPYSAELGPLDLTRVNTMCLIEYPEWRTQREPDLADDVTDYGSIGEFYDALRVGMEQLRGHVRGNQKQMDEFGPFYQNSPPLTVTESGDAGFLQALTLVDIIVDQGEGQTQPVETIPTEFQNTADGFQDAWPHFQRFDFIRRMPNWPGVYTGVTDPPAGSPGAEAQARLIADFAGFLDILNGMFSGGGAPPAFGVQMAKLGGDILSCWKLGAVPRYS”, “soluble”.
With “GMQGIAFQDAYPDDLSHCYGCGRNNEQGHQLKSYWRGEQTIAHFMPKPFHTAIPGFVYGGLIASLIDCHGTGSASAAAQRALEQAGEQLDEPPRFVTAALNIDYLAPTPMGVELELVGEIKEVKPRKVVVEIALSADGKLCARGHMVAVKMPETMAATSA” the entry was “soluble”; with “GMSAPEDWNSQVIQEFRANGGRVGGNFEGAPMVLVHHVGRKTGKAAVTPMMYLPSDDDPGTIYVFASKAGAASNPAWYYNLTTAGTAQVEVGTETYAVGVTEVTGEDRDRIYSEQARRYPGFADYEKKTAGIRTIPVLALTRT”, “soluble”; with “GMTFEPYPFERLRALLKEITPKKRGLDLGIGEPQFETPKFIQDALKNHTHSLNIYPKSAFEESLRAAQRGFFKRRFKIELKENELISTLGSREVLFNFPSFVLFDYQNPTIAYPNPFYQIYEGAAKFIKAKSLLMPLTKENDFTPSLNEKELQEVDLVILNSPNNPTGRTLSLEELISWVKLALKHDFILINDECYSEIYENTPPPSLLEACMLAGNEAFKNVLVIHSLSKRSSAPGLRSGFIAGDSRLLEKYKAFRAYLGYTSANAIQKASEAAWLDDRHAEFFRNIYANNLKLARKIFKNTLIYPYSFYVYLPVQNGENFAKTLYQNEGIITLPALYLGRNRIGADYVRLALVYDTPLLEKPLEIIETYRENHA”, “soluble”.
“GMTLPPYHTPLPAETLRALSIPAPWTFGLADRVRFGELDAIGHVNHTAYLRWYESFRLPFLKARHVTDYGPTSPRLVLKQVHCTYLAEMGMGEDYVITGRVSNFRTTSFTMEFACWRLGDAVECTSEGSAVVVLLNRDGSGRYPIPEAGRASFVTEDGVLAAG”: the “soluble on expression in E. coli” value is “soluble”.
With “GPGGSPGGLQKRHARVTVKYDRRELQRRLDVEKWIDGRLEELYRGREADMPDEVNIDELLELESEEERSRKIQGLLKSCTNPTENFVQELLVKLRGLHK” the entry was “soluble”; with “GPGSGLTELQMRARRCPNRQARIDWSEGEVRSFYQALSQYGTDFSAIAVLFPSRSRRDIKRLYQREMRQKPKEVQAALNQKHPIDMAVFEVRYEAKKKEAQQPVKMKKLNSEELAFLDEIAGRQPSESAMHMKGEELEVPVPAATLGGVEEATAAPPSRLRKRPRGTHQADSEDGPESKRATKEIPPAADDDFDMEQESFFDMVVRHEREDNAPLDMLFAAQLEQGQQQHLAALEDSDFSFE”, “soluble”; with “GPGSMACARDHLRQTRTHQRHASTRDGQRMRAVSLAADPACTHPPTHTHTHIYTPIYVCRGFVCVTPQWRTELFNVVLLWRRAHTSLLSAACLCPYAQASPSCLHASFLSRLPRLSLSLSPCSCLHPHSTGVFAYIVFLRCRAATQNTSPVSSCVVRLVTRDLCAQSPTPPLPALCGHRNLVSLHRRKTPRLKRRVRTQATQRSDHRSSLIMPVFHAVMSVKESERVERIAPVKNRAWGLRFQCASCNEESTGMMYVNQTEQHERDGGMHNFVSKCKLCKADITADVLPVPAGTGYYSAEEENPANVIAAFEVRGGRPVELEIDNQWMIVTAGGGLFEDVDLSQEWYDYDESSQATVSVAGVSVDFEKSKKK”, “not soluble”.
With “GPGSMAHSLTWKLLSPEQTHECLTAPDVPSIRSVLKKIDEACDGKLIGAAKYNEGKVMIVLDMLAHLILFCKSRSMSPEKVSTLVGIVIKIHEESMSGGYTRAKSYHLMRDLMIKHSVPRPPFSCGVFTVRDAQEIDEYMLRSYYRHYKMYFYAFVPRQVMNVRCLDVTHIHQVPPVGLPSLSTAVVESEWRTKVEEQRREAEEQAMQEGEIASDAYEEERMRNRLLADPHYSDGIREQLECIKKEVSSKAVGRLDEIEMRLQEIEKKVAESFARSDSKQGRRKK” the entry was “soluble”; with “GPGSMASTSGPASLEEAALASLGNYSPEQLQMAETALRAVLMEKVQALAAEHGDAFIQSLVQKEIARTRKMETELANVKKRLGVQERCVDSMRMDVRKVKAQEEKSKYICQNLQETARRREQLTEKMQPEMEAYRSDVRERVSENVQSIWAECEKRRERVETVEAEVTELEAGLAHKKETFERSFAEFQDGLKGRTAEYQELIVAYQEATKEVELIEAQLMLVRRERQSVETTRAALQQQLEVYEKQFDGFAEAVMKPEDVEALAKRQHDQAQMRITELEAEKTNVHQQRLQMDKELTDLRAKHASLKREMQQLEKAKTAAEKKCRQAQQSRQEKK”, “not soluble”.
With “GPGSMDDGFSRILLAWFSNNPSFGKTIPVTAGQAVLNTLYIRYVVNKSVSFEDILAYQFRWVSANDAATEVFNKFTDGKESMTSEQLGKFLRDVQRSDVTDRQIVEKFKYCFGGGIHKYNFISYNGSVLTNNAIDPARTSDVWQDMTQSFTHYMVSCARIEAEEDLKRAAADGTRALVLNINKASNGKLMVGSCELQTILEGVKKNGFATNTYPIVLCLSPGTPMPTPVQDEVAKMINDILESAVAEGLMFEGAMINDPKFSPGALRNKVLVMSHQSRLKPFIGFLVADMNKDGLGVRVTDVMEGTPASKGGVLKDDWLTHINGIPIQNKQHLRETLARLKAGDEFTVRRENLHDVKVVVGGAIDPQDTTASASLSSITFFKYSDSNDPKPWDTERIPASSLATTKLTRKDLLTHFAFCTVNSAEASTELPDAEGKAASLGIQFVDVDNSERCLPWTRGRFSDNGRCGYILKTDIDSAKSPELSLSVIGGPRLLNCSPLTSMNVTIHGAGTARVNGSQVSFTDCNQATIAVVQMTFEANGAERTFTSAFCPGLLRPGYRALPSVPFGEERASKKQIHGIYCFIK” the entry was “not soluble”.
